In assay [1] the target is Replication Protein A (Q9V1Z1, Q9V1Y9, Q9V1Z0), His-tagged RPA complex (Pyrococcus abyssi). Briefly: SPR; RPA (100 nM, 10 min) held on a 5' biotinylated 32-mer ssDNA on a streptavidin surface; analytes injected at 16.67, 50, 150 and 450 nM; 25°C, PBS Tween 0.5%, 20 uL/min; referenced against ssDNA/RPA dissociation curves; 1:1 binding model.
Assay [2] concerns the target A1 subunit of the RNA polymerase, endogenous (Pyrococcus abyssi (endogenous in P. abyssi cell extract)).
In assay [3] the target is A2 subunit of the RNA polymerase, endogenous (Pyrococcus abyssi (endogenous in P. abyssi cell extract)).

Consider two substances from paper PMC3820547.

“DNA Polymerase D (Q9V2F3, Q9V2F4), HIS-tagged complex (from UniProt Q9V2F3 1-619; Q9V2F4 1-1455)” registered a stability relative to the RPA/catalytic subunit of DNA primase complex (from the dissociation constants of Figure 2) in assay [1] of 2 fold.

For “Replication Protein A (Q9V1Z1, Q9V1Y9, Q9V1Z0), His-tagged RPA complex”, the run-off transcripts in a promoter-specific in vitro transcription assay (gdh promoter; RNAP, TBP and TFB from P. furiosus), RPA 10-50 nM in assay [2] and in assay [3] was 3 fold in each case.
